Reference: patent publication US20250270314A1 (TAVOTEK BIOTECH SUZHOU, published 2025)

T1: human CDH17 on AGS gastric cancer cells and AsPC-1 pancreatic cancer cells (human, UniProt Q12864 23-832)
T1 construct: Native CDH17 on the surface of cancer cell lines; also called CDH17 expressing AGS cells; CDH17 expressing AsPC-1 pancreatic cancer cells
T1 sequence: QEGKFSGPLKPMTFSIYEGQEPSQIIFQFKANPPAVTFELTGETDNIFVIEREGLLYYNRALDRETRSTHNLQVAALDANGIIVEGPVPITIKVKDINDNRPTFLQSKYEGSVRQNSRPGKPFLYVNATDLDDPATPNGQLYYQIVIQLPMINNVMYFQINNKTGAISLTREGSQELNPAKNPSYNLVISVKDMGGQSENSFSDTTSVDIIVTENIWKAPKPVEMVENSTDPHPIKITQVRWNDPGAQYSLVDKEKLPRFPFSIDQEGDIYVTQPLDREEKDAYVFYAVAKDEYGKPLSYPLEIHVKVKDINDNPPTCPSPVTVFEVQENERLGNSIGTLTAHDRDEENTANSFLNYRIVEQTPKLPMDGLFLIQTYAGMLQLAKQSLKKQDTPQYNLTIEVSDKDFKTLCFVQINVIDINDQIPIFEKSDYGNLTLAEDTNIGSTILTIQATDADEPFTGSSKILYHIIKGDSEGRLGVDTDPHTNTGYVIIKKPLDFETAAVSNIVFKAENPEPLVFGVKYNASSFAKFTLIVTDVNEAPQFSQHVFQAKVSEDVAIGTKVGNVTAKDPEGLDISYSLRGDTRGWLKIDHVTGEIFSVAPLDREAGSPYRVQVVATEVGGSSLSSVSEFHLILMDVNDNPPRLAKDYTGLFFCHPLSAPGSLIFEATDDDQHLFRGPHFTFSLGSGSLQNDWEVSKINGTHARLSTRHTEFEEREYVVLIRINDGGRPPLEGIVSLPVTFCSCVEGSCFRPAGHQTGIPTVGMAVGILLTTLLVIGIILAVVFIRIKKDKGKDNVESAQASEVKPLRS

T2: recombinant human CDH17 (R&D systems) (human, UniProt Q12864 23-787)
T2 construct: Bought recombinant protein coated on the ELISA plate; also called human Cadherin-17
T2 sequence: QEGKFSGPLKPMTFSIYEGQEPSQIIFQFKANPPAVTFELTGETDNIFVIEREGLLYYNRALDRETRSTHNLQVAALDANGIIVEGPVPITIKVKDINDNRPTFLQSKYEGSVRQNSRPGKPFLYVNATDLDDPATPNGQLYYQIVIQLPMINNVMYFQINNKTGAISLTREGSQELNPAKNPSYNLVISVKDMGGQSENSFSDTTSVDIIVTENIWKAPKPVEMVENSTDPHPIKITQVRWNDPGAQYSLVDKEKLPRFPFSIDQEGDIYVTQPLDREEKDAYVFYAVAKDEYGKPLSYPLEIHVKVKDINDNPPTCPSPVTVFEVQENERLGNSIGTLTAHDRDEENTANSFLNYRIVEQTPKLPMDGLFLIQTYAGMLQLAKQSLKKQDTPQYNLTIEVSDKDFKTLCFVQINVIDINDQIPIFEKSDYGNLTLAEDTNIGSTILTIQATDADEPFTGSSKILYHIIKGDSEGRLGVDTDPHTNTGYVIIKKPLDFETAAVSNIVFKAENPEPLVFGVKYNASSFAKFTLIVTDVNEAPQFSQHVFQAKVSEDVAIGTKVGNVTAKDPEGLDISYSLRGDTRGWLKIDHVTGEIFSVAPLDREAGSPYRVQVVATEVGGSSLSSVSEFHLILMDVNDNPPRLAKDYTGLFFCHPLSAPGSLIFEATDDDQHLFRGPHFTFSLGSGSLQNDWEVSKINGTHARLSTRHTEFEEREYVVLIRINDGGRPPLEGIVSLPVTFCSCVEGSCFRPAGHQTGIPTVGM

B1: VHO v355 (VHH)
VHH: EVQLLESGGGLVQPGGSLRLSCAASGFTFSDYWMSWVRQAPGKGLEWVSAISGDGSSTYYADSVKGRFTISRDNSKNTLYLQMNSLRAEDTAVYYCAKETWGTYDFDYWGQGTLVTVSS
notes: Variable-heavy-only (VHO) single domain; also called TS00355
B2: VHO v349 (VHH)
VHH: EVQLLESGGGLVQPGGSLRLSCAASGFTFSDYWMHWVRQAPGKGLEWVSAIWSSGGSTYYADSVKGRFTISRDNSKNTLYLQMNSLRAEDTAVYYCAKSPTLYDDFDYWGQGTLVTVSS
notes: Variable-heavy-only (VHO) single domain; also called TS00349
B3: VHO v345 (VHH)
VHH: EVQLLESGGGLVQPGGSLRLSCAASGFTFSNYWMSWVRQAPGKGLEWVSAIKQDGSSTYYADSVKGRFTISRDNSKNTLYLQMNSLRAEDTAVYYCAKEEWRDYDFDYWGQGTLVTVSS
notes: Variable-heavy-only (VHO) single domain; also called TS00345
B4: VHO v352 (VHH)
VHH: EVQLLESGGGLVQPGGSLRLSCAASGFTFSSYWMHWVRQAPGKGLEWVSAIWSSGGSTYYADSVKGRFTISRDNSKNTLYLQMNSLRAEDTAVYYCAKSKSLHEDFDYWGQGTLVTVSS
notes: Variable-heavy-only (VHO) single domain; also called TS00352
B5: VHO v343 (VHH)
VHH: EVQLLESGGGLVQPGGSLRLSCAASGFTFSDYWMSWVRQAPGKGLEWVSAIKGDGSSTYYADSVKGRFTISRDNSKNTLYLQMNSLRAEDTAVYYCAKEEWRPYSFDYWGQGTLVTVSS
notes: Variable-heavy-only (VHO) single domain; also called TS00343
B6: VHO v362 (VHH)
VHH: EVQLLESGGGLVQPGGSLRLSCAASGFTFSDYWMSWVRQAPGKGLEWVSNISSDGGSTYYADSVKGRFTISRDNSKNTLYLQMNSLRAEDTAVYYCAKTTTWLLSQHDKTSFDYWGQGTLVTVSS
notes: Variable-heavy-only (VHO) single domain; also called TS00362
B7: VHO v379 (VHH)
VHH: EVQLLESGGGLVQPGGSLRLSCAASGFTFSSYGMSWVRQAPGKGLEWVSNINQSGSSTYYADSVKGRFTISRDNSKNTLYLQMNSLRAEDTAVYYCAKHSHWAHRVLQSFDYWGQGTLVTVSS
notes: Variable-heavy-only (VHO) single domain; also called TS00379
B8: VHO v347 (VHH)
VHH: EVQLLESGGGLVQPGGSLRLSCAASGFTFSTYAMSWVRQAPGKGLEWVSNISGSGGSTYYADSVKGRFTISRDNSKNTLYLQMNSLRAEDTAVYYCAKEQQWVPGFGFDYWGQGTLVTVSS
notes: Variable-heavy-only (VHO) single domain; also called TS00347
B9: VHO v351 (VHH)
VHH: EVQLLESGGGLVQPGGSLRLSCAASGFTFSSYAMSWVRQAPGKGLEWVSNISGSGSSTYYADSVKGRFTISRDNSKNTLYLQMNSLRAEDTAVYYCAKESQHSPGWGFDYWGQGTLVTVSS
notes: Variable-heavy-only (VHO) single domain; also called TS00351
B10: VHO v357 (VHH)
VHH: EVQLLESGGGLVQPGGSLRLSCAASGFTFSDYWMSWVRQAPGKGLEWVSNISSSGSSTYYADSVKGRFTISRDNSKNTLYLQMNSLRAEDTAVYYCAKTSDWLSGKIDEHFDYWGQGTLVTVSS
notes: Variable-heavy-only (VHO) single domain; also called TS00357
B11: VHO v369 (VHH)
VHH: EVQLLESGGGLVQPGGSLRLSCAASGFTFSDYWMSWVRQAPGKGLEWVSNISGSGSSTYYADSVKGRFTISRDNSKNTLYLQMNSLRAEDTAVYYCAKTSQWLARERSSEFDYWGQGTLVTVSS
notes: Variable-heavy-only (VHO) single domain; also called TS00369
B12: VHO v370 (VHH)
VHH: EVQLLESGGGLVQPGGSLRLSCAASGFTFSNYWMSWVRQAPGKGLEWVSNISSDGGSTYYADSVKGRFTISRDNSKNTLYLQMNSLRAEDTAVYYCAKTTTWLTYRQGHGFDYWGQGTLVTVSS
notes: Variable-heavy-only (VHO) single domain; also called TS00370
B13: VHO v376 (VHH)
VHH: EVQLLESGGGLVQPGGSLRLSCAASGFTFSDYWMSWVRQAPGKGLEWVSGINSSGGSTYYADSVKGRFTISRDNSKNTLYLQMNSLRAEDTAVYYCAKWQFVTQPGHKAFDYWGQGTLVTVSS
notes: Variable-heavy-only (VHO) single domain; also called TS00376
B14: VHO v380 (VHH)
VHH: EVQLLESGGGLVQPGGSLRLSCAASGFTFSNYWMSWVRQAPGKGLEWVSGISQSGSSTYYADSVKGRFTISRDNSKNTLYLQMNSLRAEDTAVYYCAKWQFASWRGDKDFDYWGQGTLVTVSS
notes: Variable-heavy-only (VHO) single domain; also called TS00380
B15: VHO v374 (VHH)
VHH: EVQLLESGGGLVQPGGSLRLSCAASGFTFSTYWMSWVRQAPGKGLEWVSGINQDGSSTYYADSVKGRFTISRDNSKNTLYLQMNSLRAEDTAVYYCAKWHWAGSSQQFDYWGQGTLVTVSS
notes: VHO single domain; also called TS00374
B16: VHO v342 (VHH)
VHH: EVQLLESGGGLVQPGGSLRLSCAASGFTFSDYWMSWVRQAPGKGLEWVSNISQSGGSTYYADSVKGRFTISRDNSKNTLYLQMNSLRAEDTAVYYCAKDTPGPRWDFDYWGQGTLVTVSS
notes: Variable-heavy-only (VHO) single domain; also called TS00342
B17: VHO v346 (VHH)
VHH: EVQLLESGGGLVQPGGSLRLSCAASGFTFSDYWMSWVRQAPGKGLEWVSAIKQDGGSTYYADSVKGRFTISRDNSKNTLYLQMNSLRAEDTAVYYCAKETWEAHWDFDYWGQGTLVTVSS
notes: Variable-heavy-only (VHO) single domain; also called TS00346
B18: VHO v365 (VHH)
VHH: EVQLLESGGGLVQPGGSLRLSCAASGFTFSDYWMSWVRQAPGKGLEWVSNINQDGGSTYYADSVKGRFTISRDNSKNTLYLQMNSLRAEDTAVYYCAKTSDWLLVQFDYWGQGTLVTVSS
notes: Variable-heavy-only (VHO) single domain; also called TS00365
B19: VHO v341 (VHH)
VHH: EVQLLESGGGLVQPGGSLRLSCAASGFTFSTYWMSWVRQAPGKGLEWVSVINQDGSSTYYADSVKGRFTISRDNSKNTLYLQMNSLRAEDTAVYYCAKDELKSEWDFDYWGQGTLVTVSS
notes: Variable-heavy-only (VHO) single domain; also called TS00341
B20: VHO v372 (VHH)
VHH: EVQLLESGGGLVQPGGSLRLSCAASGFTFSSYWMSWVRQAPGKGLEWVSGINYSGSSTYYADSVKGRFTISRDNSKNTLYLQMNSLRAEDTAVYYCAKWSWLGSDKADFDYWGQGTLVTVSS
notes: Variable-heavy-only (VHO) single domain; also called TS00372
B21: VHO v371 (VHH)
VHH: EVQLLESGGGLVQPGGSLRLSCAASGFTFSNYWMSWVRQAPGKGLEWVSGINGSGGSTYYADSVKGRFTISRDNSKNTLYLQMNSLRAEDTAVYYCAKWHWYGQEKKAFDYWGQGTLVTVSS
notes: Variable-heavy-only (VHO) single domain; also called TS00371
B22: VHO v377 (VHH)
VHH: EVQLLESGGGLVQPGGSLRLSCAASGFTFSDYWMSWVRQAPGKGLEWVSAISGDGSSTYYADSVKGRFTISRDNSKNTLYLQMNSLRAEDTAVYYCAKEDWRPGFDYWGQGTLVTVSS
notes: VHO single domain; also called TS00377
B23: CDH17 v1 (antibody, human IgG1, V domains shown)
VH: EVQLQQSVAELVKPGASVKMSCKVSGYTLTDHTIHWMKQRPEQGLEWIGYIYPRDGITGYNEKFKGKATLTADTSSSTAYMQLNSLTSEDSAVYFCARWGYSYRNYAYYYDYWGQGTTLTVSS
VL: DIVMSQSPSSLAVSVGEKVTMSCKSSQSLLHSSNQKNYLAWYQQKPGQSPKVLIYWASTRESGVPDRFTGSGSGTDFTLTITSVKSEDLAVYYCQQYYSYPWTFGGGTRLEIK
notes: described as human IgG1 monoclonal antibody; also called anti-CDH17 v1

These binders were tested against T1, human CDH17 on AGS gastric cancer cells … (assay: flow cytometry on AGS and AsPC-1 cells).
B1: binds. B2: binds. B3: binds. B4: binds. B5: binds. B6: binds. B7: binds. B8: binds. B9: binds. B10: binds. B11: binds. B12: binds. B13: binds. B14: binds. B15: binds. B16: binds. B17: binds. B18: binds. B19: binds. B20: binds. B21: binds. B22: binds.

Each binder was assayed against T2, recombinant human CDH17 (R&D systems) (assay: ELISA, plate coated with recombinant human CDH17).
Description: ELISA-based binding assay was employed to evaluate the binding to CDH17 by anti-CDH17 antibodies. In this assay, 100 μL of […] recombinant human CDH17 (R&D systems) was coated on an ELISA plate. Increasing concentrations of masked and reference mAbs were applied on the plate and their binding to the recombinant human proteins were detected by HRP-conjugated anti-human secondary antibody. […] The expressed anti-CDH17 mAbs had potent binding to CDH17. The anti-CDH17 were tested for binding to AGS gastric cancer cells and AsPC-1 pancreatic cancer cells.
B23: binds.
